Data taken from PMC11160672 (bioRxiv, 2024).

B1: Acetyl-CoA carboxylase carboxyltransferase subunit AccD (enzyme, E. coli, UniProt P0A9Q5 1-304, looked up)
chain: MSWIERIKSNITPTRKASIPEGVWTKCDSCGQVLYRAELERNLEVCPKCDHHMRMTARNRLHSLLDEGSLVELGSELEPKDVLKFRDSKKYKDRLASAQKETGEKDALVVMKGTLYGMPVVAAAFEFAFMGGSMGSVVGARFVRAVEQALEDNCPLICFSASGGARMQEALMSLMQMAKTSAALAKMQERGLPYISVLTDPTMGGVSASFAMLGDLNIAEPKALIGFAGPRVIEQTVREKLPPGFQRSEFLIEKGAIDMIVRRPEMRLKLASILAKLMNLPAPNPEAPREGVVVPPVPDQEPEA
B2: Acetyl-CoA carboxylase carboxyltransferase subunit AccA (enzyme)
chain: MSLNFLDFEQPIAELEAKIDSLTAVSRQDEKLDINIDEEVHRLREKSVELTRKIFADLGAWQIAQLARHPQRPYTLDYVRLAFDEFDELAGDRAYADDKAIVGGIARLDGRPVMIIGHQKGRETKEKIRRNFGMPAPEGYRKALRLMQMAERFKMPIITFIDTPGAYPGVGAEERGQSEAIARNLREMSRLGVPVVCTVIGEGGSGGALAIGVGDKVNMLQYSTYSVISPEGCASILWKSADKAPLAAEAMGIIAPRLKELKLIDSIIPEPLGGAHRNPEAMAASLKAQLLADLADLDVLSTEDLKNRRYQRLMSYGYA

Legend:
Biotin carboxylase AccC = Biotin carboxylase AccC (E. coli, UniProt P24182 1-449); experiment: SEC
[1] = biological target: B2; experiment: cryo-EM structure

Binder | stoichiometry N (Biotin carboxylase AccC) | binding result [1]
B1 | ~1 | binds
B2 | ~1 | –
